{"source": "patent US8357523B2", "about": "“Beta-glucosidase variant enzymes and related polynucleotides” (Codexis, Inc., priority 2009, dated 2013)"}
{"experiment": "High throughput cellobiose assay: fold improvement in cellobiase activity of CelA variants over a control enzyme (Tables 2A-2D, 3, 5, 6, 7)", "type": "biochemical", "settings": "3.3 g/l cellobiose, 50° C. and pH 6.5; compared to native CelA (SEQ ID NO: 4)", "experimental": "β-glucosidase activity was also determined using a cellobiose assay, which used cellobiose as substrate. In a total volume of 100 μL, 25 μL clear media supernatant containing CelA enzyme was added to 10 g/L cellobiose (Fluka Cat. No. 22150, Sigma-Aldrich, Inc., St. Louis, Mo.) in 100 mM sodium phosphate buffer (pH 6-7) or sodium acetate buffer (pH 5-5.5). The reaction was incubated at 45-70° C. for an appropriate time (25 minutes to overnight depending on the enzyme concentration) while shaking. Glucose production was determined using an enzymatic glucose assay (K-GLUC, Megazyme, Ireland). 10 μl of each reaction was added to 190 μl GOPOD reagent (supplied as part of the K-GLUC assay kit). The reaction was incubated at 45° C. for 20 minutes and the absorbance of the solution was measured at 510 nm. The GOPOD reagent contains 50 mM Potassium phosphate buffer pH7.4, 0.011M p-hydroxybenzoic acid, 0.008% w/v sodium azide, glucose oxidase (>12,000 U/L), peroxidase (>650 U/L) and 80 mg/L 4-aminoantipyrine. The glucose oxidase enzyme in the reagent reacts with any glucose present in the sample and produces hydrogen peroxide which then reacts with the 4-aminoantipyrine to produce a quinoneimine dye in quantities proportionate with the amount of glucose present and can be measured spectrophotometrically at 510 nm. Detectable β-glucosidase activity was observed under high throughput screening conditions (i.e., pH 7, 50° C.).\nPlasmid libraries containing variant CelA genes were transformed into B. megaterium and plated on Luria-Bertani (LB) agar plates containing 3 μg/mL tetracycline with a DM3 regeneration media overlay (400 mM sodium succinate dibasic, pH 7.3, 0.5% casamino acids, 0.5% yeast extract, 0.4% K2HPO4, 0.2% KH2PO4, 20 mM MgCl2, 0.5% glucose and 0.2% BSA). After incubation for at least 18 hours at 30° C., colonies were picked using a Q-bot® robotic colony picker (Genetix USA, Inc., Beaverton, Oreg.) into shallow, 96-well well microtiter plates containing 180 μL, LB and 10 μg/mL tetracycline. Cells were grown overnight at 37° C. with shaking at 200 rpm and 85% humidity. 10 μL of this culture was then transferred into 96-well microtiter plates (deep well) containing 390 μL A5-glucose-xylose medium and 10 μg/mL tetracycline as described in example 2. The plates were then incubated at 37° C. with shaking at 250 rpm and 85% humidity overnight (˜18-24 hours). The deep plates were centrifuged at 4000 rpm for 15 minutes and the clear media supernatant containing the secreted CelA enzyme was used for the high throughput pNPG or cellobiose assay of Example 5.\nThe CelA libraries were screened in high throughput using the cellobiose assay of Example 5 (Substrate: cellobiose; pH: 5-7; temperature: 45-72° C.; time: 2-24 hrs) for the identification of improved variants.\nIn shallow, 96-well microtiter plates 25 μL of media supernatant was added to 75 μL of […] cellobiose in 150 mM sodium acetate buffer pH 5-5.5 or 150 mM sodium phosphate buffer pH6-7. After sealing with aluminum/polypropylene laminate heat seal tape (Velocity 11 (Menlo Park, Calif.), Cat#06643-001), the plates were shaken at 45-65° C. for up to 24 hrs. The plates were centrifuged for 5 minutes at 4000 rpm. In shallow well clear microtiter plates, 10 μL of the reaction mixture was added to 190 μL of GOPOD reagent (as in example 5B) per well. The solutions were incubated at 45° C. for 1 hour and absorbance was measured at 510 nm for the identification of active CelA variants.\nImproved CelA variants were identified from the high throughput screening of various CelA variant libraries as described in Example 7, using the cellobiose assay of Example 5 using 3.3 g/l cellobiose at temperatures from 50°-55° C. at a pH in the range of 5.3-6.5. Tables 2A, 2B, 2C, and 2D and Table 3 depict the improvement in activities of CelA variants encompassed by the invention. The assay conditions are indicated in each table. […]"}
{"molecule": "7 (protein) STAIAQEGAAPAAILHPEKWPRPATQRLIDPAVEKRVDALLKQLSVEEKVGQVIQGDIGTITPEDLRKYPLGSILAGGNSGPNGDDRAPPKEWLDLADAFYRVSLEKRPGHTPIPVLFGIDAVHGHGNIGSATIFPHNIALGATHDPELLRRIGEVTAVEMAATGIDWTFAPALSVVRDDRWGRTYEGFSEDPEIVAAYSAAIVEGVQGKYGSKDFMAPGRIVASAKHFLADGGTDQGRDQGDARISEDELIRIHNAGYPPAIDAGVLTVMASFSSWQGIKHHGHKQLLTDVLKGQMGFNGFIVGDWNAHDQVPGCTKFNCPTSLIAGLDMYMAADSWKQLYENTLAQVKDGTIPMARLDDAVRRILRVKVLAGLFEKPAPKDRPGLPGLETLGSPEHRAVGREAVRKSLVLLKNDKGTLPLSPKARVLVAGDGADNIGKQSGGWTISWQGTGNRNDEFPGATSILGGIRDAVADAGGSVEFDVAGQYKTKPDVAIVVFGEEPYAEFQGDVETLEYQPDQKQDLALLKKLKDQGIPVVAVFLSGRPMWVNPELNASDAFVAAWLPGTEGGGVADVLFTDKAGKVQHDFAGKLSYSWPRTAAQTTVNRGDADYNPLFAYGYGLTYKDKSKVGTLPEESGVPAEARQNAGIYFRAGALRLPGRFL", "Fold improvement over wildtype CelA": "++ (++ = 2.1 to 2.6 fold improvement over native CelA (SEQ ID NO: 4))"}
{"molecule": "10 (protein) STAIAQEGAAPAAILHPEKWPRPATQRLIDPAVEKRVDALLKQLSVEEKVGQVIQGDIGTITPEDLRKYPLGSILAGGNSGPNGDDRAPPKEWLDLADAFYRVSLEKRPGHTPIPVLFGIDAVHGHGNIGSATIFPHNIALGATHDPELLRRIGEVTAVEMAATGIDWTFAPALSVVRDDRWGRTYEGFSEDPEIVAMYSAAIVEGVQGKFGSKDFMAPGRIVASAKHFLADGGTDQGRDQGDARISEDELIRIHNAGYPPAIDAGVLTVMASFSSWQGIKHHGHKQLLTDVLKGQMGFNGFIVGDWNAHDQVPGCTKFNCPTSLIAGLDMYMAADSWKQLYENTLAQVKDGTIPMARLDDAVRRILRVKVLAGLFEKPAPKDRPGLPGLETLGSPEHRAVGREAVRKSLVLLKNDKGTLPLSPKARVLVAGDGADNIGKQSGGWTISWQGTGNRNDEFPGATSILGGIRDAVADAGGSVEFDVAGQYKTKPDVAIVVFGEEPYAEFQGDVETLEYQPDQKQDLALLKKLKDQGIPVVAVFLSGRPMWVNPELNASDAFVAAWLPGTEGGGVADVLFTDKAGKVQHDFAGKLSYSWPRTAAQTTVNRGDADYNPLFAYGYGLTYKDKSKVGTLPEESGVPAEARQNAGIYFRAGALRLPGRFL", "Fold improvement over wildtype CelA": "+ (+ = 1.1 to 2.0 fold improvement over native CelA (SEQ ID NO: 4))"}
{"molecule": "8 (protein) STAIAQEGAAPAAILHPEKWPRPATQRLIDPAVEKRVDALLKQLSVEEKVGQVIQGDIGTITPEDLRKYPLGSILAGGNSGPNGDDRAPPKEWLDLADAFYRVSLEKRPGHTPIPVLFGIDAVHGHGNIGSATIFPHNIALGATHDPELLRRIGEVTAVEMTATGIDWTFAPALSVVRDDRWGRTYEGFSEDPEIVAAYSAAIVEGVQGKFGSKDFMAPGRIVASAKHFLADGGTDQGRDQGDARISEDELIRIHNAGYPPAIDAGVLTVMASFSSWQGIKHHGHKQLLTDVLKGQMGFNGFIVGDWNAHDQVPGCTKFNCPTSLIAGLDMYMAADSWKQLYENTLAQVKDGTIPMARLDDAVRRILRVKVLAGLFEKPAPKDRPGLPGLETLGSPEHRAVGREAVRKSLVLLKNDKGTLPLSPKARVLVAGDGADNIGKQSGGWTISWQGTGNRNDEFPGATSILGGIRDAVADAGGSVEFDVAGQYKTKPDVAIVVFGEEPYAEFQGDVETLEYQPDQKQDLALLKKLKDQGIPVVAVFLSGRPMWVNPELNASDAFVAAWLPGTEGGGVADVLFTDKAGKVQHDFAGKLSYSWPRTAAQTTVNRGDADYNPLFAYGYGLTYKDKSKVGTLPEESGVPAEARQNAGIYFRAGALRLPGRFL", "Fold improvement over wildtype CelA": "+ (+ = 1.1 to 2.0 fold improvement over native CelA (SEQ ID NO: 4))"}
{"molecule": "12 (protein) STAIAQEGAAPAAILHPEKWPRPATQRLIDPAVEKRVDALLKQLSVEEKVGQVIQGDIGTITPEDLRKYPLGSILAGGNSGPNGDDRAPPKEWLDLADAFYRVSLEKRPGHTPIPVLFGIDAVHGHGNIGSATIFPHNIALGATHDPELLRRIGEVTAVEMAATGIDWTFAPALSVVRDDRWGRTYEGFSEDPEIVAAYSANIVEGVQGKFGSKDFMAPGRIVASAKHFLADGGTDQGRDQGDARISEDELIRIHNAGYPPAIDAGVLTVMASFSSWQGIKHHGHKQLLTDVLKGQMGFNGFIVGDWNAHDQVPGCTKFNCPTSLIAGLDMYMAADSWKQLYENTLAQVKDGTIPMARLDDAVRRILRVKVLAGLFEKPAPKDRPGLPGLETLGSPEHRAVGREAVRKSLVLLKNDKGTLPLSPKARVLVAGDGADNIGKQSGGWTISWQGTGNRNDEFPGATSILGGIRDAVADAGGSVEFDVAGQYKTKPDVAIVVFGEEPYAEFQGDVETLEYQPDQKQDLALLKKLKDQGIPVVAVFLSGRPMWVNPELNASDAFVAAWLPGTEGGGVADVLFTDKAGKVQHDFAGKLSYSWPRTAAQTTVNRGDADYNPLFAYGYGLTYKDKSKVGTLPEESGVPAEARQNAGIYFRAGALRLPGRFL", "Fold improvement over wildtype CelA": "+ (+ = 1.1 to 2.0 fold improvement over native CelA (SEQ ID NO: 4))"}
{"molecule": "9 (protein) STAIAQEGAAPAAILHPEKWPRPATQRLIDPAVEKRVDALLKQLSVEEKVGQVIQGDIGTITPEDLRKYPLGSILAGGNSGPNGDDRAPPKEWLDLADAFYRVSLEKRPGHTPIPVLFGIDAVHGHGNIGSATIFPHNIALGATHDPELLRRIGEVTAVEMAATGIDWTFAPALSVVRDDRWGRTYEGFSEDPEIVAAYSGAIVEGVQGKFGSKDFMAPGRIVASAKHFLADGGTDQGRDQGDARISEDELIRIHNAGYPPAIDAGVLTVMASFSSWQGIKHHGHKQLLTDVLKGQMGFNGFIVGDWNAHDQVPGCTKFNCPTSLIAGLDMYMAADSWKQLYENTLAQVKDGTIPMARLDDAVRRILRVKVLAGLFEKPAPKDRPGLPGLETLGSPEHRAVGREAVRKSLVLLKNDKGTLPLSPKARVLVAGDGADNIGKQSGGWTISWQGTGNRNDEFPGATSILGGIRDAVADAGGSVEFDVAGQYKTKPDVAIVVFGEEPYAEFQGDVETLEYQPDQKQDLALLKKLKDQGIPVVAVFLSGRPMWVNPELNASDAFVAAWLPGTEGGGVADVLFTDKAGKVQHDFAGKLSYSWPRTAAQTTVNRGDADYNPLFAYGYGLTYKDKSKVGTLPEESGVPAEARQNAGIYFRAGALRLPGRFL", "Fold improvement over wildtype CelA": "+ (+ = 1.1 to 2.0 fold improvement over native CelA (SEQ ID NO: 4))"}
{"molecule": "11 (protein) STAIAQEGAAPAAILHPEKWPRPATQRLIDPAVEKRVDALLKQLSVEEKVGQVIQGDIGTITPEDLRKYPLGSILAGGNSGPNGDDRAPPKEWLDLADAFYRVSLEKRPGHTPIPVLFGIDAVHGHGNIGSATIFPHNIALGATHDPELLRRIGEVTALEMAATGIDWTFAPALSVVRDDRWGRTYEGFSEDPEIVAAYSAAIVEGVQGKFGSKDFMAPGRIVASAKHFLADGGTDQGRDQGDARISEDELIRIHNAGYPPAIDAGVLTVMASFSSWQGIKHHGHKQLLTDVLKGQMGFNGFIVGDWNAHDQVPGCTKFNCPTSLIAGLDMYMAADSWKQLYENTLAQVKDGTIPMARLDDAVRRILRVKVLAGLFEKPAPKDRPGLPGLETLGSPEHRAVGREAVRKSLVLLKNDKGTLPLSPKARVLVAGDGADNIGKQSGGWTISWQGTGNRNDEFPGATSILGGIRDAVADAGGSVEFDVAGQYKTKPDVAIVVFGEEPYAEFQGDVETLEYQPDQKQDLALLKKLKDQGIPVVAVFLSGRPMWVNPELNASDAFVAAWLPGTEGGGVADVLFTDKAGKVQHDFAGKLSYSWPRTAAQTTVNRGDADYNPLFAYGYGLTYKDKSKVGTLPEESGVPAEARQNAGIYFRAGALRLPGRFL", "Fold improvement over wildtype CelA": "+ (+ = 1.1 to 2.0 fold improvement over native CelA (SEQ ID NO: 4))"}
